Source: the supplement of paper PMC11811203

B1: THAP1; numbered along this chain (parent)
chain: MVQSCSAYGCKNRYDKDKPVSFHKFPLTRPSLCKEWEAAVRRKNFKPTKYSSICSEHFTPDCFKRECNNKLLKENAVPTIFLCTEPHDKKEDLLEPQEQLPPPPLPPPVSQVDAAIGLLMPPLQTPVNLSVFCDHNYTVEDTMHQRKRIHQLEQQVEKLRKKLKTAQQRCRRQERQLEKLKEVVHFQKEKDDVSERGYVILPNDYFEIVEVPA

Variants of: B1
Assay: THAP1 transcriptional activity (GFP+/GFP- enrichment relative to wild-type constructs) (ratio to WT); higher = more THAP1 activity (PSMB5 reporter activation)
Conditions: with PSMB5 promoter-GFP reporter
Procedure, shortened: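 A site-saturation library of human THAP1 (residues 2–213, each changed to all 20 amino acids) was transduced by lentivirus at MOI ~0.3, in duplicate, into THAP1-knockout HEK-293T cells carrying mClover3 knocked in at endogenous PSMB5. After five days, BFP+ cells were sorted into GFP-dim and GFP-bright bins, and variants were counted by Illumina sequencing of genomic DNA amplicons. Activity is the replicate-mean bright/dim read fold change divided by the mean of wild-type synonymous constructs.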

| Variant | THAP1 transcriptional activity |
| --- | --- |
| MVQSCSAYGCKNRYDKDKPVSFHKFPLTRPSLCKEWEAAVRRKNFKPTKYSSICSEHFTPDRFKRECNNKLLKENAVPTIFLCTEPHDKKEDLLEPQEQLPPPPLPPPVSQVDAAIGLLMPPLQTPVNLSVFCDHNYTVEDTMHQRKRIHQLEQQVEKLRKKLKTAQQRCRRQERQLEKLKEVVHFQKEKDDVSERGYVILPNDYFEIVEVPA [C62R] | 0.181 |
| MVQSCSAYGCKNRYDKDKPVSFHKFPLTRPSLCKEWEAAVRRKNFKPTKYSSICSEHFTPDVFKRECNNKLLKENAVPTIFLCTEPHDKKEDLLEPQEQLPPPPLPPPVSQVDAAIGLLMPPLQTPVNLSVFCDHNYTVEDTMHQRKRIHQLEQQVEKLRKKLKTAQQRCRRQERQLEKLKEVVHFQKEKDDVSERGYVILPNDYFEIVEVPA [C62V] | 0.0798 |
| MVQSCSAYGCKNRYDKDKPVSFHKFPLTRPSLCKEWEAAVRRKNFKPTKYSSICSEHFTPDQFKRECNNKLLKENAVPTIFLCTEPHDKKEDLLEPQEQLPPPPLPPPVSQVDAAIGLLMPPLQTPVNLSVFCDHNYTVEDTMHQRKRIHQLEQQVEKLRKKLKTAQQRCRRQERQLEKLKEVVHFQKEKDDVSERGYVILPNDYFEIVEVPA [C62Q] | 0.74 |
| MVQSCSAYGCKNRYDKDKPVSFHKFPLTRPSLCKEWEAAVRRKNFKPTKYSSICSEHFTPDWFKRECNNKLLKENAVPTIFLCTEPHDKKEDLLEPQEQLPPPPLPPPVSQVDAAIGLLMPPLQTPVNLSVFCDHNYTVEDTMHQRKRIHQLEQQVEKLRKKLKTAQQRCRRQERQLEKLKEVVHFQKEKDDVSERGYVILPNDYFEIVEVPA [C62W] | 0.113 |
| MVQSCSAYGCKNRYDKDKPVSFHKFPLTRPSLCKEWEAAVRRKNFKPTKYSSICSEHFTPDYFKRECNNKLLKENAVPTIFLCTEPHDKKEDLLEPQEQLPPPPLPPPVSQVDAAIGLLMPPLQTPVNLSVFCDHNYTVEDTMHQRKRIHQLEQQVEKLRKKLKTAQQRCRRQERQLEKLKEVVHFQKEKDDVSERGYVILPNDYFEIVEVPA [C62Y] | 0.141 |
| MVQSCSAYGCKNRYDKDKPVSFHKFPLTRPSLCKEWEAAVRRKNFKPTKYSSICSEHFTPDTFKRECNNKLLKENAVPTIFLCTEPHDKKEDLLEPQEQLPPPPLPPPVSQVDAAIGLLMPPLQTPVNLSVFCDHNYTVEDTMHQRKRIHQLEQQVEKLRKKLKTAQQRCRRQERQLEKLKEVVHFQKEKDDVSERGYVILPNDYFEIVEVPA [C62T] | 0.195 |
| MVQSCSAYGCKNRYDKDKPVSFHKFPLTRPSLCKEWEAAVRRKNFKPTKYSSICSEHFTPDSFKRECNNKLLKENAVPTIFLCTEPHDKKEDLLEPQEQLPPPPLPPPVSQVDAAIGLLMPPLQTPVNLSVFCDHNYTVEDTMHQRKRIHQLEQQVEKLRKKLKTAQQRCRRQERQLEKLKEVVHFQKEKDDVSERGYVILPNDYFEIVEVPA [C62S] | 1.72 |
| MVQSCSAYGCKNRYDKDKPVSFHKFPLTRPSLCKEWEAAVRRKNFKPTKYSSICSEHFTPDCHKRECNNKLLKENAVPTIFLCTEPHDKKEDLLEPQEQLPPPPLPPPVSQVDAAIGLLMPPLQTPVNLSVFCDHNYTVEDTMHQRKRIHQLEQQVEKLRKKLKTAQQRCRRQERQLEKLKEVVHFQKEKDDVSERGYVILPNDYFEIVEVPA [F63H] | 0.0911 |
| MVQSCSAYGCKNRYDKDKPVSFHKFPLTRPSLCKEWEAAVRRKNFKPTKYSSICSEHFTPDCDKRECNNKLLKENAVPTIFLCTEPHDKKEDLLEPQEQLPPPPLPPPVSQVDAAIGLLMPPLQTPVNLSVFCDHNYTVEDTMHQRKRIHQLEQQVEKLRKKLKTAQQRCRRQERQLEKLKEVVHFQKEKDDVSERGYVILPNDYFEIVEVPA [F63D] | 0.063 |
| MVQSCSAYGCKNRYDKDKPVSFHKFPLTRPSLCKEWEAAVRRKNFKPTKYSSICSEHFTPDCAKRECNNKLLKENAVPTIFLCTEPHDKKEDLLEPQEQLPPPPLPPPVSQVDAAIGLLMPPLQTPVNLSVFCDHNYTVEDTMHQRKRIHQLEQQVEKLRKKLKTAQQRCRRQERQLEKLKEVVHFQKEKDDVSERGYVILPNDYFEIVEVPA [F63A] | 0.117 |
| MVQSCSAYGCKNRYDKDKPVSFHKFPLTRPSLCKEWEAAVRRKNFKPTKYSSICSEHFTPDCCKRECNNKLLKENAVPTIFLCTEPHDKKEDLLEPQEQLPPPPLPPPVSQVDAAIGLLMPPLQTPVNLSVFCDHNYTVEDTMHQRKRIHQLEQQVEKLRKKLKTAQQRCRRQERQLEKLKEVVHFQKEKDDVSERGYVILPNDYFEIVEVPA [F63C] | 0.139 |
| MVQSCSAYGCKNRYDKDKPVSFHKFPLTRPSLCKEWEAAVRRKNFKPTKYSSICSEHFTPDCEKRECNNKLLKENAVPTIFLCTEPHDKKEDLLEPQEQLPPPPLPPPVSQVDAAIGLLMPPLQTPVNLSVFCDHNYTVEDTMHQRKRIHQLEQQVEKLRKKLKTAQQRCRRQERQLEKLKEVVHFQKEKDDVSERGYVILPNDYFEIVEVPA [F63E] | 0.0925 |
| MVQSCSAYGCKNRYDKDKPVSFHKFPLTRPSLCKEWEAAVRRKNFKPTKYSSICSEHFTPDCGKRECNNKLLKENAVPTIFLCTEPHDKKEDLLEPQEQLPPPPLPPPVSQVDAAIGLLMPPLQTPVNLSVFCDHNYTVEDTMHQRKRIHQLEQQVEKLRKKLKTAQQRCRRQERQLEKLKEVVHFQKEKDDVSERGYVILPNDYFEIVEVPA [F63G] | 0.1 |
| MVQSCSAYGCKNRYDKDKPVSFHKFPLTRPSLCKEWEAAVRRKNFKPTKYSSICSEHFTPDCIKRECNNKLLKENAVPTIFLCTEPHDKKEDLLEPQEQLPPPPLPPPVSQVDAAIGLLMPPLQTPVNLSVFCDHNYTVEDTMHQRKRIHQLEQQVEKLRKKLKTAQQRCRRQERQLEKLKEVVHFQKEKDDVSERGYVILPNDYFEIVEVPA [F63I] | 0.134 |
